As usually defined, the stoichiometry N is the number of molecules, sites or subunits per partner or assembly.

The values that follow come from paper doi:10.1101/2023.08.25.554918 (bioRxiv, 2023).

Holding throughout (assay): SEC
For orientation: Size exclusion chromatography separates by hydrodynamic size, large species first.

In data set [1] the target is Chimera 1 (Pfu1-Pfu2-Ton3) (Pyrococcus furiosus | Thermococcus onnurineus).
Data set [2] deals with Chimera 2 (Pfu1-Ton2-Pfu3) (Pyrococcus furiosus | Thermococcus onnurineus).
Data set [3] addresses Chimera 3 (Ton1-Ton2-Pfu3) (Thermococcus onnurineus | Pyrococcus furiosus).
For data set [4], the target named is Chimera 4 (Ton1-Pfu2-Ton3) (Thermococcus onnurineus | Pyrococcus furiosus).
Data set [5] has as its target Chimera 5 (Pfu1-Ton2-Ton3) (Pyrococcus furiosus | Thermococcus onnurineus).
Data set [6] concerns the target Chimera 6 (Ton1-Pfu2-Pfu3) (Thermococcus onnurineus | Pyrococcus furiosus).
The target in data set [7] is Domain 1 of PfuAmyGT (Pfu1) (Pyrococcus furiosus).
The data set “SEC” deals with the molecule itself.

In data set [1], Chimera 1 (Pfu1-Pfu2-Ton3) (enzyme) had a stoichiometry N of 2.
Consider Chimera 2 (Pfu1-Ton2-Pfu3) (enzyme), for which, in data set [2], the stoichiometry N turned out to be 2.
For the molecule Chimera 3 (Ton1-Ton2-Pfu3) (enzyme), the stoichiometry N in data set [3] was 2.
As to Chimera 4 (Ton1-Pfu2-Ton3) (enzyme), the stoichiometry N in data set [4] came to 2.
With Chimera 5 (Pfu1-Ton2-Ton3) (enzyme), in data set [5], the stoichiometry N was found to be 2.
In data set [6], Chimera 6 (Ton1-Pfu2-Pfu3) (enzyme) yielded a stoichiometry N of 2.
In data set [7], “Domain 1 of PfuAmyGT (Pfu1) (domain or fragment)” displayed a stoichiometry N of 4.

B1: PfuAmyGT (Pfu1-Pfu2-Pfu3), GH57 4-α-glucanotransferase from Pyrococcus furiosus (enzyme)
chain: MGDKINFIFGIHNHQPLGNFGWVFEEAYEKCYWPFLETLEEYPNMKVAIHTSGPLIEWLQDNRPEYIDLLRSLVKRGQVEIVVAGFYEPVLASIPKEDRIEQIRLMKEWAKSIGFDARGVWLTERVWQPELVKTLKESGIDYVIVDDYHFMSAGLSKEELYWPYYTEDGGEVIAVFPIDEKLRYLIPFRPVDKVLEYLHSLIDGDESKVAVFHDDGEKFGIWPGTYEWVYEKGWLREFFDRISSDEKINLMLYTEYLEKYKPRGLVYLPIASYFEMSEWSLPAKQARLFVEFVNELKVKGIFEKYRVFVRGGIWKNFFYKYPESNYMHKRMLMVSKLVRNNPEARKYLLRAQCNDAYWHGLFGGVYLPHLRRAIWNNLIKANSYVSLGKVIRDIDYDGFEEVLIENDNFYAVFKPSYGGSLVEFSSKNRLVNYVDVLARRWEHYHGYVESQFDGVASIHELEKKIPDEIRKEVAYDKYRRFMLQDHVVPLGTTLEDFMFSRQQEIGEFPRVPYSYELLDGGIRLKREHLGIEVEKTVKLVNDGFEVEYIVNNKTGNPVLFAVELNVAVQSIMESPGVLRGKEIVVDDKYAVGKFALKFEDEMEVWKYPVKTLSQSESGWDLIQQGVSYIVPIRLEDKIRFKLKFEEASG
As for B1, the “stoichiometry N” value in the data set “SEC” worked out at 2.
